Reference: US10544159B2, “Artemisinin derivatives, methods for their preparation and their use as antimalarial agents” (priority 2012, dated 2020)
Residue numbers refer to the chain shown, from its start.

B1: CYP102A1: naturally occurring wild-type cytochrome P450 CYP102A1 from Bacillus megaterium (SEQ ID NO.: 1) (protein, listed as Bacillus megaterium)
chain: MTIKEMPQPKTFGELKNLPLLNTDKPVQALMKIADELGEIFKFEAPGRVTRYLSSQRLIKEACDESRFDKNLSQALKFVRDFAGDGLFTSWTHEKNWKKAHNILLPSFSQQAMKGYHAMMVDIAVQLVQKWERLNADEHIEVPEDMTRLTLDTIGLCGFNYRFNSFYRDQPHPFITSMVRALDEAMNKLQRANPDDPAYDENKRQFQEDIKVMNDLVDKIIADRKASGEQSDDLLTHMLNGKDPETGEPLDDENIRYQIITFLIAGHETTSGLLSFALYFLVKNPHVLQKAAEEAARVLVDPVPSYKQVKQLKYVGMVLNEALRLWPTAPAFSLYAKEDTVLGGEYPLEKGDELMVLIPQLHRDKTIWGDDVEEFRPERFENPSAIPQHAFKPFGNGQRACIGQQFALHEATLVLGMMLKHFDFEDHTNYELDIKETLTLKPEGFVVKAKSKKIPLGGIPSPSTEQSAKKVRKKAENAHNTPLLVLYGSNMGTAEGTARDLADIAMSKGFAPQVATLDSHAGNLPREGAVLIVTASYNGHPPDNAKQFVDWLDQASADEVKGVRYSVFGCGDKNWATTYQKVPAFIDETLAAKGAENIADRGEADASDDFEGTYEEWREHMWSDVAAYFNLDIENSEDNKSTLSLQFVDSAADMPLAKMHGAFSTNVVASKELQQPGSARSTRHLEIELPKEASYQEGDHLGVIPRNYEGIVNRVTARFGLDASQQIRLEAEEEKLAHLPLAKTVSVEELLQYVELQDPVTRTQLRAMAAKTVCPPHKVELEALLEKQAYKEQVLAKRLTMLELLEKYPACEMKFSEFIALLPSIRPRYYSISSSPRVDEKQASITVSVVSGEAWSGYGEYKGIASNYLAELQEGDTITCFISTPQSEFTLPKDPETPLIMVGPGTGVAPFRGFVQARKQLKEQGQSLGEAHLYFGCRSPHEDYLYQEELENAQSEGIITLHTAFSRMPNQPKTYVQHVMEQDGKKLIELLDQGAHFYICGDGSQMAPAVEATLMKSYADVHQVSEADARLWLQQLEEKGRYAKDVWAG
B2: FL#41: CYP102A1-derived engineered P450 variant (SEQ ID NO. 4) (protein)
chain: B1 chain with F88A

Assay: Total turnovers and regio-/stereoselectivity of P450 variants in artemisinin hydroxylation (analytical scale)
Assay type: biochemical
Conditions: total turnovers on artemisinin, NADPH cofactor regeneration system, analytical scale
Procedure: Determination of Total Turnovers and Regio- and Stereoselectivity of the P450 Variants.
After 12 hours, 9-fluorenone was added to the mixtures as internal standard. The hydroxylation products were functionalized with benzoyl chloride followed by HPLC analysis. TTN values were calculated based on the total amount of hydroxylated products in the reactions as quantified based on the calibration curves generated using purified 2-4. The enzyme regio- and stereoselectivity was determined based on the area under the curve of the chromatographic peaks corresponding to the hydroxylation products 2, 3, and 4. Mean and standard deviation values reported for P450 variants in Table 1 were calculated from experiments performed at least in triplicate.

| Molecule | TTN |
| --- | --- |
| B1 | < 1 |
| B2 | about 50 |
